Earlier results on 14 substances are cited in paper PMC7772776.

Among the targets are Cys72 (UniProt position 72, VFGMGCFWGAE); Cys125 (UniProt position 126, PGDFGCDAQGA); Cys87 (UniProt position 87, RLGRICLDVLK); Cys46 (UniProt position 47, DFTFVCPTELG); Cys124 (UniProt position 125, HPGDFCADAQG); Cys29 (UniProt position 108, GSCGSCWAFGA); Cys145 (UniProt position 145, PILIPCHRVVC); Cys88 (UniProt position 88, ADGSICLDILQ); Cys102 (UniProt position 102, KFLTPCYHPNV).

The target of data set [1] is Cys25 (UniProt position 158, GSCGSCWAFSA).
The target in data set [2] is Cys283 (UniProt position 283, GYVLTCPSNLG).
Data set [3] concerns the target Cys283 (UniProt position 283, GYVLTCPANLG).
Data set [4] addresses Cys25 (UniProt position 157, GSCGSCWAFSA).

Regarding “Methionine sulfoxide reductase A (MmsrA) (Mus musculus)”, the pKa (commonly the negative logarithm of the acid dissociation constant) with Cys72 is given as 7.2. Consider “Methionine sulfoxide reductase A E115Q (MmsrA E115Q) (Mus musculus; E115Q)”, for which, in the data set with Cys72, the pKa is recorded as 8.2. Regarding “Myoglobin A125C (Mb A125C) (Physeter macrocephalus (sperm whale); A125C)”, the pKa with Cys125 was 8.4. As to “Papain (papaya proteinase I) (Carica papaya)”, the pKa with Cys25 [1] is given as 3.3. With “Ubiquitin-conjugating enzyme Ubc13 (Saccharomyces cerevisiae)”, the pKa with Cys87 is recorded as 11.1. As to “Muscle creatine kinase (HMCK) (Homo sapiens)”, the pKa with Cys283 [2] is 5.6. Consider “Alkyl hydroperoxide reductase C (AhpC) (Salmonella (article gives genus only; Salmonella typhimurium inferred))”, for which the pKa with Cys46 is 5.9.

“Muscle creatine kinase S285A (HMCK S285A) (Homo sapiens; S285A)”: the pKa with Cys283 [3] is recorded as 6.7.

As to “Myoglobin G124C (Mb G124C) (Physeter macrocephalus (sperm whale); G124C)”, in the data set with Cys124, the pKa was 6.5. On to “Papaya protease omega (caricain) (Carica papaya)”, for which the pKa in the data set with Cys25 [4] is 2.9. As for Cathepsin B (Rattus norvegicus), in the data set with Cys29, the pKa was 3.6.

Take “O6-alkylguanine-DNA alkyltransferase (AGT) (Homo sapiens)”: the pKa in the data set with Cys145 is reported as 5.3. In the case of “Ubiquitin-conjugating enzyme E2 B (Ubc2b; 'Ubc2' in Table 1) (Homo sapiens)”, the pKa with Cys88 is given as 10.2. As for “Ubiquitin-conjugating enzyme UbcH10 C114S (Homo sapiens; C114S)”, the pKa in the data set with Cys102 was 10.9.
